Each molecule was assayed on HEK293 cells. Conditions: luminescence from secreted Gluc in supernatant 24 hours after transfection of HEK293 cells; circular RNA encoding Gluc with the named IRES (UTR truncated to 675 nt).
Type: cell-based, human

Molecule	Expression
Quail picornavirus QPV1 (nucleic acid) DNA: TTTGCATCAGTTCGCCCCTCCCCTCACCATACCTTTTTCCCCTCTTTAGGACTGATACTTGGTTATGATGAGCAGAGGATTTCGCAAGTTATGCTTCTTGATAAAAAGTAATTCACGAATCATGGGATTATAGCCTGGAAGTGAACACTCATGTGGCAAGTGGGTTAGTAGCTCTCCATGTTCCCATGTGCAGTGGACTGACAACAGTGAGTTCGGGGTTGTGTAGTAAAGGGAAAGTATTACTTACCCGCACCTGCTATACGTGGTGTACGTAGGATACGAGTTAGTAGTGCTTAGCAACTTTAAACTGGTGCTGAAATATTGCAAGGTCACTGAAGTTGTGAACGCGAACGCTCCGCCACTGCCATGTATAGCGTGCAATGCATAAATGGTGCACTACATGATACGAGGGAATGGGAAACCCTCCATGGCCGAATGCAGGGTGACAGCCTGCCGGCGGATGCCTGTTGTTAGTATAATCCGTTGTTTGCCAC	6.55E+07
Phopivirus strain NewEngland (nucleic acid) DNA: GGGAGTAAACCTCACCACCGTTTGCCGTGGTTTACGGCTACCTATTTTTGGATGTAAATATTAATTCCTGCAGGTTCAGGTCTCTTGAATTATGTCCACGCTAGTGGCACTCTCTTACCCATAAGTGACGCCTTAGCGGAACCTTTCTACACTTGATGTGGTTAGGGGTTACATTATTTCCCTGGGCCTTCTTTGGCCCTTTTTCCCCTGCACTATCATTCTTTCTTCCGGGCTCTCAGCATGCCAATGTTCCGACCGGTGCGCCCGCCGGGGTTAACTCCATGGTTAGCATGGAGCTGTAGGCCCTAAAAGTGCTGACACTGGAACTGGACTATTGAAGCATACACTGTTAACTGAAACATGTAACTCCAATCGATCTTCTACAAGGGGTAGGCTACGGGTGAAACCCCTTAGGTTAATACTCATATTGAGAGATACTTCTGATAGGTTAAGGTTGCTGGATAATGGTGAGTTTAACGACAAAAACCATTCAACAGCTGTGGGCCAACCTCATCAGGTAGATGCTTTTGGAGCCAAGTGCGTAGGGGTGTGTGTGGAAATGCTTCAGTGGAAGGTGCCCTCCCGAAAGGTCGTAGGGGTAATCAGGGGCAGTTAGGTTTCCACAATTACAATTTGAA	1.06E+05
Lesavirus 1 (nucleic acid) DNA: GTAACTAATAAGCAAGTTTTACTGCCTGCAAACTGCTTCAATGGGACCACCGCTTCGGCGACCCCTTTGTTGAGTTTGTATGTTTTTAAGTAATCTTTGCAACCATACGATTATTTTAGCCGCCTCTCTATAATGATCTTGTTATAGTGGGACGTGAAACATTGGTTTTTCTCACACACGTCCGGTCACCCGGGCGTGTGTTCTTCCGTAAGTCCTATCCACATACCATCGTGGGTAGGCCAGCATGTTTGCACAGGCTGTGACAGTGTGGGTGGGCTTTCCACCTCTCAACAACACACTGAATTGCAATGCACTCACGGAGGAAATGACAATTTGGTTATAGTTTTGAACTGTGCTAGTAATTTCTTTCACATTAAGCCATGTTGCCTGCGGAATCACATGTGGTAACACATGCCTCAGGGCCCAAAAGGCACGGGTTAGCAGCCCCTTCATGGTGTGTTAGAAGTGAAAACACATAGTATGAGCTATAATATCTTTGTTGTCTTCTCTGTAGTGTACCCCGCCAAATGTAAGGATGCCCAGCAGGTACCCATTTTATGGATCTGAGCTGGGGATTGATAGTGTATCTATAAATGCACTGATCAATTTAAAAAGCGTCTAAGTTTGGCACAAACACTGGGGACAGTGTTTTTCCTTTATTCTTTTATTTGATTA	6.37E+06
Pestivirus strain Aydin (nucleic acid, listed as Pestivirus sp.) DNA: GTATACGAGATTAGCTCATACTCGTGTACAAATTGGACGTAGCAAATTTAAAAATTCGGATAGGGTCCCCATCCAGCGACGGCCGAACGGGGTTAACCATACCTCTAGTAGGACTAGCAGACGGATGGACTAGCCACAGTGGTGAGCTCCCTGGGAGGTCTAAGTTCTGAGTACAGAACAGTCGTCAGTAGTTCAACGCTGGTAAACCCCAGCCTTGAGATGCTACGTGGACGAGGGCATGCCCAAGACACACCTTAACCTGGACGGGGGTCGTCCAGGTGAAAGTACCCATCTTTGGGTGCTGGGAGTACAGCCTGATAGGGCGCTGCAGAGGCCCACTGACAGGCTAGTATAAAAATCTCTGCTGTACATGGAAC	3.11E+06
Porcine reproductive and respiratory syndrome virus 2 (nucleic acid) DNA: ATGACGTATAGGTGTTGGCTCTATGCCTTGGCATTTGTATTGTCAGGAGCTGTGACCATTGGCACAGCCCAAAACTTGCTGCACAGAAACACCCTTCTGTGATAGCCTCCTTCAGGGGAGCTTAGGGTTTGTCCCTAGCACCTTGCTTCCGGAGTTGCACTGCTTTACGGTCTCTCCACCCCTTTAACC	1.29E+05
Ludopivirus (nucleic acid, listed as Ludopivirus sp.) DNA: TAGACCCCCACCTAGCCCTTTTCCCCGTCAGTGGGGGGCTTACTCACTGGGCATCTGTTAATCTGGCCTAACTAGATTGACACCACTCCCTTGGAACGTAACTCCACGCTAACTCACTGGCTCTACGCACAGACACACGGTCTTTCTGCTATCCCCGGGGAAGATACCAGATGGCGACCGGCTGTCCCAGCGGCCTAGTAGCTACTCGGGTTGAGTACCCACCACGGTTTTGACGCCTGCTAAAATTCAAGAGACAGAGGTAGGGGTGCTTAGTGTGTGGGGGAAGTTCCCACAAGCGAGGCAAAGCATTGCTCCCTCGCGTCACCGGGTGCAAGGTAAATTGGCTGGACTTCCGCTCTACCCTTGCTACTCGCCCTCTTCGGAGGGTTCGAAGTGACACTAGGTATACGCATGGTTGGGAAACCATGCCTGGCCTACTACTGGGTGATAGCCTGGCGGCGGGTCCGTCTCTTGGCTTATACCCGTTGATTTGGGAT	1.05E+05
Lesavirus 2 (nucleic acid) DNA: TCTTTCTTTATTTTCTTATGTAACTCTTCTTTTTAAGTTTTATTTTGCCTACTTGTGAGCTTATGCGGGACCACTGTCTTAGACAACCCCACATTTGTCATGAGTAAGTACACGCAACCATTACGATTACTTTTTAACCGTCTGACCTTTTGATAACAACTGAAGTTAGGCGTGAAACATGCATTTATACCAAAGTAGCCCCGCATTTCCCCACTACGGTGGGGGGGCTACCCTACTGGCTTTGGAACTGTAGCCATTATGTGTTGCCTGGCTTTCAGGATCTCACAACACAACAGTTCTCTCACAATGGAATATGGGTGAGATTGCAGTGACATGAACAAGTATCTAGTAGTACATAGACTCAAGCCTAGTTGCCTGCGGAACAACATGTGGTAACACATGCCCCAGGGTCCAAAAGACAAGGGTTAACAGCCCCTTCTAGGTGTCTGTGTGTGAAGAATACTTTAGTAGTGTTGTTATGATCTCACCTGTTAGTACAGAATGAGTATGGCTTGGTGAAGGATGTCCTACAGGTACCCATTATATGGATCTGAGTAGGAGACCACTAGTGGTGGCTTTACCGCCAGGTGAGTGGTTTAAAAAGCGTCTAGCCAAGCCAACAGCACTAGGGATAGTGCTTTCTATATTTTATATTTTCAGTGTATATGGTGACAA	3.67E+07
